Test results from US20260184814A1, “BROADLY NE[…] INFLUENZA NEURAMINIDASE” (priority 2022, published 2026).

What was measured:
[1] = target: human FcγRIIIa (F158 allele) (human) (UniProt P08637)
[2] = target: human FcγRIIIa (V158 allele) (human) (UniProt P08637)
[3] = target: human FcγRIIIa (F158 allele) (human) (UniProt P08637); assay: MSD
[4] = target: human FcγRIIIa (V158 allele) (human) (UniProt P08637); assay: MSD
human FcγRIIIb (human) [5] = target: human FcγRIIIb (human) (UniProt O75015); assay: MSD
[6] = target: human FcγRIIa (H131 allele) (human) (UniProt P12318); assay: MSD
[7] = target: human FcγRIIa (R131 allele) (human) (UniProt P12318); assay: MSD
human FcγRIIb (human) [8] = target: human FcγRIIb (human) (UniProt P31994); assay: MSD
human FcRn (human) [9] = target: human FcRn (human) (UniProt P55899); assay: MSD [cont'd]
[10] = target: human FcγRIIIa (F158 allele) (human) (UniProt P08637); assay: MSD [cont'd]
[11] = target: human FcγRIIIa (V158 allele) (human) (UniProt P08637); assay: MSD [cont'd]
human FcγRIIIb (human) [12] = target: human FcγRIIIb (human) (UniProt O75015); assay: MSD [cont'd]
[13] = target: human FcγRIIa (H131 allele) (human) (UniProt P12318); assay: MSD [cont'd]
[14] = target: human FcγRIIa (R131 allele) (human) (UniProt P12318); assay: MSD [cont'd]
human FcγRIIb (human) [15] = target: human FcγRIIb (human) (UniProt P31994); assay: MSD [cont'd]
human FcγRIIb (human) [16] = target: human FcγRIIb (human) (UniProt P31994); assay: MSD electrochemiluminescence binding assay; column IIB
human FcRn (human) [17] = target: human FcRn (human) (UniProt P55899); assay: MSD electrochemiluminescence binding assay; column FcRn
human FcγRIIIb (human) [18] = target: human FcγRIIIb (human) (UniProt O75015); assay: MSD electrochemiluminescence binding assay; column IIIB
[19] = target: human FcγRIIa (H131 allele) (human) (UniProt P12318); assay: MSD electrochemiluminescence binding assay; column IIA_H
[20] = target: human FcγRIIa (R131 allele) (human) (UniProt P12318); assay: MSD electrochemiluminescence binding assay; column IIA_R
[21] = target: human FcγRIIIa (F158 allele) (human) (UniProt P08637); assay: MSD electrochemiluminescence binding assay; column IIIA_F
[22] = target: human FcγRIIIa (V158 allele) (human) (UniProt P08637); assay: MSD electrochemiluminescence binding assay; column IIIA_V
[23] = target: human FcγRIIIa (F158 allele) (human) (UniProt P08637); remark: listed apart in the source
[24] = target: human FcγRIIIa (V158 allele) (human) (UniProt P08637); remark: listed apart in the source
[25] = target: human FcγRIIa (H131 allele) (human) (UniProt P12318)
human FcγRIIb (human) [26] = target: human FcγRIIb (human) (UniProt P31994)
human C1q (human) = human C1q (human) (UniProt P02745); assay: MSD [cont'd]
Sequence of human C1q (human) (P02745 23-245 limits assumed, chain 1 of 3): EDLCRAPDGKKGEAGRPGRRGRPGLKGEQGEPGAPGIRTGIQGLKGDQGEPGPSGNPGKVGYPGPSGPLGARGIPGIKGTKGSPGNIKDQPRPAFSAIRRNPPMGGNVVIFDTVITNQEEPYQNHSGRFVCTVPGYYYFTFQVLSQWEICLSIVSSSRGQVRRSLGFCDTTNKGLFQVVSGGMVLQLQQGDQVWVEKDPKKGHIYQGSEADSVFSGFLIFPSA
Sequence of human C1q (human) (P02746 28-253 limits assumed, chain 2 of 3, further chain): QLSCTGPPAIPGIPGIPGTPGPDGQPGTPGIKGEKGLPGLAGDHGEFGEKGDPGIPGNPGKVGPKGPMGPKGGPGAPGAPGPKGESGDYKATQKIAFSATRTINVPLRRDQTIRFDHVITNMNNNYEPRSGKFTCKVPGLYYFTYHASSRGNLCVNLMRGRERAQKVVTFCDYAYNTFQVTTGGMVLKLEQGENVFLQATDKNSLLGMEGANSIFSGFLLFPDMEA
Sequence of human C1q (human) (P02747 29-245 limits assumed, chain 3 of 3, further chain): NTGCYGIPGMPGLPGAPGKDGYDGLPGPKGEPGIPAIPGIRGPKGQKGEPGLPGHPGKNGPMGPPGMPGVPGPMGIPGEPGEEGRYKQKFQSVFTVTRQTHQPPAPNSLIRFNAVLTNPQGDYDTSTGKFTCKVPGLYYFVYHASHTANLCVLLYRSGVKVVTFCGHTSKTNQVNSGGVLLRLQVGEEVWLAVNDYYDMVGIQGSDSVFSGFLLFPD

Sequence of human FcγRIIb (human) (P31994 43-217 limits assumed): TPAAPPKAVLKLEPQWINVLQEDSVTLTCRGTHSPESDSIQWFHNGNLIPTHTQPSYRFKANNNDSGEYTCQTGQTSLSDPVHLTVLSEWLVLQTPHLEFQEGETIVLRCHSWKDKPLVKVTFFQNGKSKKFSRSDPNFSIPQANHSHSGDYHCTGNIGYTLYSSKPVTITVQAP
Sequence of human FcγRIIIa (F158 allele) (human) (P08637 17-208 limits assumed): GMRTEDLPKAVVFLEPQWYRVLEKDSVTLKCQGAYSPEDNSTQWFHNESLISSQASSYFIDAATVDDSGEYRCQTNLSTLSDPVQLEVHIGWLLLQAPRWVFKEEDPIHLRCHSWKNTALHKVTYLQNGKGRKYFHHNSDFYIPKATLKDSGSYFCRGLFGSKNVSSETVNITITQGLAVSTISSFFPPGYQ
Sequence of human FcγRIIa (H131 allele) (human) (P12318 34-218 limits assumed): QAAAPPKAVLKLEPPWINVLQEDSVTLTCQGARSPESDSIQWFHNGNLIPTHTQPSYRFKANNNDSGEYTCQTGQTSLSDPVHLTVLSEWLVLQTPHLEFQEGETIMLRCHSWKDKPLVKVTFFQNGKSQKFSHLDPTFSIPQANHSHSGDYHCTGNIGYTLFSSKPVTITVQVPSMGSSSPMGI
Sequence of human FcRn (human) (P55899 24-297 limits assumed, chain 1 of 2): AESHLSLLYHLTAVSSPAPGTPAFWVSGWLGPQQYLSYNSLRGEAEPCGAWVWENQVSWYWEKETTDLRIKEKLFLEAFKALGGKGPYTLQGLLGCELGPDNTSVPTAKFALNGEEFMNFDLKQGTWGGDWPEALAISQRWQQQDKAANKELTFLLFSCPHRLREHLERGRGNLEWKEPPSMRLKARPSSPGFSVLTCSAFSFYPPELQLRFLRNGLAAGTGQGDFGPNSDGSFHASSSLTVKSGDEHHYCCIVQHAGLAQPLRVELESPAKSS
Sequence of human FcRn (human) (chain, as listed by the source limits assumed, chain 2 of 2): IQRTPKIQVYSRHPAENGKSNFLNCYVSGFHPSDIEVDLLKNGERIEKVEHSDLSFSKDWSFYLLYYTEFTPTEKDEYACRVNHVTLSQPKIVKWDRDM
Sequence of human FcγRIIIb (human) (O75015 17-200 limits assumed): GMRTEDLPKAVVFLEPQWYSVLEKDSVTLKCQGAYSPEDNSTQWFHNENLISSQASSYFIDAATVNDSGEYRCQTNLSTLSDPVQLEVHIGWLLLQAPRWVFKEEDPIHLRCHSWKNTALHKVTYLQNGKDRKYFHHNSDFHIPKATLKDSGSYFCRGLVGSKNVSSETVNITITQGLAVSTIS
Sequence of human FcγRIIIa (V158 allele) (human) (P08637 17-208 F176V limits assumed): as the sequence (P08637 17-208 limits assumed) above, with F160V counted along it
Sequence of human FcγRIIa (R131 allele) (human) (P12318 34-218 H167R limits assumed): as the sequence (P12318 34-218 limits assumed) above, with H134R counted along it

Row | Substance | FcγR reporter signaling, fold to wt-fucose [cont'd] [1] [fold] | FcγR reporter signaling, fold to wt-fucose [cont'd] [2] [fold] | fold to wt-fucose (human FcRn (human) [9]) [fold] | fold to wt-fucose [10] [fold] | fold to wt-fucose [11] [fold] | fold to wt-fucose (human FcγRIIIb (human) [12]) [fold] | fold to wt-fucose [13] [fold] | fold to wt-fucose [14] [fold] | fold to wt-fucose (human FcγRIIb (human) [15]) [fold] | fold-change in binding vs wild-type IgG1 (human FcγRIIb (human) [16]) | fold-change in binding vs wild-type IgG1 (human FcRn (human) [17]) | fold-change in binding vs wild-type IgG1 (human FcγRIIIb (human) [18]) | fold-change in binding vs wild-type IgG1 [19] | fold-change in binding vs wild-type IgG1 [20] | fold-change in binding vs wild-type IgG1 [21] | fold-change in binding vs wild-type IgG1 [22] | further results
1 | G236A_A330L_I332E-afuc (antibody) | 14.8 | 5.27 | 1.09 | 259 | 32 | 14.1 | 3.45 | 1.65 | 0.67 | – | – | – | – | – | – | – | fold-change (reference not given) [3]: 242 fold; fold-change (reference not given) [4]: 28 fold; fold-change (reference not given) (human FcγRIIIb (human) [5]): 14.8 fold; fold-change (reference not given) [6]: 3.1 fold; fold-change (reference not given) [7]: 1.6 fold; fold-change (reference not given) (human FcγRIIb (human) [8]): 0.6 fold
2 | G236A_A330L_I332E_M428L_N434S-afuc (antibody) | 16.4 | 6.2 | 7.37 | 275 | 34.5 | 11.8 | 2.56 | 1.2 | 0.41 | – | – | – | – | – | – | – | fold-change (reference not given) [3]: 256 fold; fold-change (reference not given) [4]: 30.2 fold; fold-change (reference not given) (human FcγRIIIb (human) [5]): 12.3 fold; fold-change (reference not given) [6]: 2.3 fold; fold-change (reference not given) [7]: 1.1 fold; fold-change (reference not given) (human FcγRIIb (human) [8]): 0.4 fold
3 | G236A_E272Y_S298N (antibody) | – | – | – | – | – | – | – | – | – | 0.19 | 0.98 | 0.62 | 0.63 | 0.38 | 0.31 | 0.06 | –
4 | G236A_K334A_Q295E-afuc (antibody) | 12.7 | 5.54 | 1.11 | 27.5 | 7.93 | 1.62 | 5.32 | 3.75 | 0.55 | – | – | – | – | – | – | – | –
5 | G236A_P230A_Q295E-afuc (antibody) | 10.9 | 5.54 | 1.02 | 26.7 | 10.8 | 1.8 | 8.94 | 6.04 | 0.67 | – | – | – | – | – | – | – | –
6 | G236A_Q295E_S298N (antibody) | – | – | – | – | – | – | – | – | – | 0.23 | 0.93 | 0.76 | 1.82 | 0.65 | 0.35 | 0.07 | –
7 | G236A_R292P-afuc (antibody) | 3.34 | 2.18 | 0.73 | 5.83 | 3.37 | 1.15 | 3.05 | 1.04 | 0.51 | – | – | – | – | – | – | – | –
8 | G236A_R292P_I377N-afuc (antibody) | 9.68 | 3.94 | 0.8 | 14.8 | 7.14 | 1.2 | 5.54 | 1.35 | 0.6 | – | – | – | – | – | – | – | fold-change (reference not given) [3]: 14.8 fold; fold-change (reference not given) [4]: 7.1 fold; fold-change (reference not given) (human FcγRIIIb (human) [5]): 1.2 fold; fold-change (reference not given) [6]: 5.5 fold; fold-change (reference not given) [7]: 1.4 fold; fold-change (reference not given) (human FcγRIIb (human) [8]): 0.6 fold
9 | G236S_G420V_G446E_L309T-afuc (antibody) | 4.41 | 4 | 0.77 | 3.35 | 1.99 | 0.86 | 3.62 | 1.7 | 0.44 | – | – | – | – | – | – | – | –
10 | G236S_R292P_Y300L-afuc (antibody) | 6.54 | 2.87 | 0.8 | 5.47 | 3.17 | 1.04 | 8.13 | 1.5 | 0.72 | – | – | – | – | – | – | – | –
11 | IgG1 antibody with Fc variant G236A_K334A_Q295E | – | – | – | – | – | – | – | – | – | 0.4 | 1.02 | 0.72 | 5.01 | 2.88 | 0.74 | 0.27 | FcγR reporter signaling, fold-change vs wt [cont'd] [23]: 0.23 fold; FcγR reporter signaling, fold-change vs wt [cont'd] [24]: 0.36 fold; FcγR reporter signaling, fold-change vs wt [cont'd] [25]: 2.13 fold; FcγR reporter signaling, fold-change vs wt [cont'd] (human FcγRIIb (human) [26]): 0.8 fold; fold-change vs wt [3]: 0.74 fold; fold-change vs wt [4]: 0.27 fold; fold-change vs wt (human FcγRIIIb (human) [5]): 0.72 fold; fold-change vs wt [6]: 4.96 fold; fold-change vs wt [7]: 2.92 fold; fold-change vs wt (human FcγRIIb (human) [8]): 0.67 fold; fold-change vs wt (human C1q (human)): 0.9 fold; fold-change vs wt (human FcRn (human) [9]): 1.02 fold
12 | IgG1 antibody with Fc variant G236A_P230A_Q295E | – | – | – | – | – | – | – | – | – | 0.48 | 0.93 | 0.72 | 7.59 | 4.57 | 0.48 | 0.31 | FcγR reporter signaling, fold-change vs wt [cont'd] [23]: 0.02 fold; FcγR reporter signaling, fold-change vs wt [cont'd] [24]: 0.06 fold; FcγR reporter signaling, fold-change vs wt [cont'd] [25]: 2.29 fold; FcγR reporter signaling, fold-change vs wt [cont'd] (human FcγRIIb (human) [26]): 0.56 fold; fold-change vs wt [3]: 0.48 fold; fold-change vs wt [4]: 0.31 fold; fold-change vs wt (human FcγRIIIb (human) [5]): 0.72 fold; fold-change vs wt [6]: 7.67 fold; fold-change vs wt [7]: 4.57 fold; fold-change vs wt (human FcγRIIb (human) [8]): 0.54 fold; fold-change vs wt (human C1q (human)): 0.3 fold; fold-change vs wt (human FcRn (human) [9]): 0.93 fold
13 | K334A_Q295E_S298N (antibody) | – | – | – | – | – | – | – | – | – | 0.47 | 0.91 | 0.93 | 0.22 | 0.28 | 0.37 | 0.09 | –
14 | L234D_G236D_K326E (antibody) | – | – | – | – | – | – | – | – | – | 0.28 | 0.83 | 0.6 | 0.14 | 0.3 | 0.35 | 0.05 | –
15 | L234D_V264R_K326E (antibody) | – | – | – | – | – | – | – | – | – | 0.5 | 0.83 | 0.6 | 0.14 | 0.25 | 0.27 | 0.05 | –
16 | L328V_Q295E_S298N (antibody) | – | – | – | – | – | – | – | – | – | 0.32 | 1.02 | 0.79 | 0.26 | 0.33 | 0.28 | 0.08 | –
17 | P245A_Q295E_S298N (antibody) | – | – | – | – | – | – | – | – | – | 0.31 | 0.85 | 0.89 | 0.28 | 0.3 | 0.34 | 0.1 | –
